“Also recorded” adds a separate entry of the source. Non-standard residues stand in square brackets, D forms with d. No end group written: not given here. pY = N[C@@H](Cc1ccc(OP(=O)(O)O)cc1)C(=O)O
Tests used:
[1] = molecular target: T1, SH2 domain of human Grb7 (Homo sapiens, UniProt Q14451); assay: Phage ELISA, peptide-phage binding to Grb7-SH2 domain-GST; details: for Relative binding affinity for Grb7: ELISA binding assay, comparison among G7BPs; for Effect of mutation of G7BP-4 phage clone on binding to Grb7-SH2-GST: phage ELISA, compared with G7BP-4
T1 construct: The SH2 domain of human Grb7 containing a GST fusion tag; made in house; host or cells: E. coli
Description: The G7BPs were identified using peptide phage display techniques. Two phage display libraries were created and screened that led to the identification of these peptides. The first library was a random peptide phage-display library containing more than 10^7 different cyclic decapeptides flanked at each end by regions of four amino acids, according to the following general motif: X4 C X10 C X4 (X=any amino acid residue, C=cysteine). […] The SH2 domain of human Grb7 containing a GST fusion tag was purified from an E. coli expression system. The random 10mer library was screened using standard phage display methodology (Smith GP. 1985. Science. 228:1315-7). The phage library was added to the target protein which was immobilized on glutathione Sepharose beads (Pharmacia). The unbound phage were removed with a series of washes and the bound phage were eluted by competitive elution with excess glutathione. These bound phage were allowed to infect E. coli in order to amplify the eluted phage. This screening process was repeated two times for a total of three rounds of screening. After the third round of screening, clones from the amplified phage were isolated and sequenced. Thirty-nine clones were characterized and all contained a Y-A/D/E-N motif, where the +2 position was enriched for alanine, aspartic acid, and glutamic acid. The second library, biased for this Y-A/D/E-N motif, was created in the same FuseV phage display system. This biased library contained over 10^6 different clones.
An ELISA binding assay was used to determine whether the peptide-phage bind specifically to the SH2 domain of Grb7, and not to the fusion protein (GST) or other SH2 domains that are homologous to Grb7. The overall methodology of an ELISA is well established. Four different proteins were bound to a polystyrene 96-well plate: Grb7-SH2 domain-GST, GST alone, Grb2-GST and BSA as a non-specific negative control. Preparations of the concentrated Grb7 peptide-phage clones were allowed to bind to these proteins. Non-specific binding was blocked by casein. Binding of phage was detected using an anti-phage antibody conjugated to horseradish peroxidase.
Mutational analysis of G7BP-4 has been conducted to determine which amino acid residues are important in peptide binding to Grb7-SH2 as well as to determine the size restriction of these peptides. The mutations for G7BP-4 include the following: (1) eliminating the 4 amino acids flanking the cysteines ([…], SEQ ID NO:35) referred to as G7BP4-No Arms (NA), (2) mutating the cysteines to serine residues ([…], SEQ ID NO:36), which are structurally very similar, referred to as G7BP4-Ser, (3) mutating the cysteines to valine residues ([…], SEQ ID NO:37), which is similar in structure and charge, and (4) a combination where the cysteines were mutated to serines and the 4 flanking amino acids were removed ([…], SEQ ID NO:38), referred to as G7BP-No Arms(NA)-Ser. The substitutions of valine and serine for cysteine will eliminate the peptides ability to form a disulfide loop. The mutations were created as a DNA oligo, ligated into the fuse5 vector, and expressed as a peptide-phage. The resultant phage were tested in a phage ELISA for their ability to bind to Grb7-SH2-GST. […] Variants of the G7BP-1, G7BP-2, G7BP-3, G7BP-5, G7BP-6 and G7BP-7 which similarly lack the 4 tracking amino acids on both ends can also bind specifically to Grb7. These peptides have the following amino acid sequences respectively: […]

[2] = molecular target: Grb7-SH2-GST (Homo sapiens, UniProt Q14451); assay: Competition ELISA, free synthetic peptide versus Grb7 binding peptide-phage on Grb7-SH2-GST; details: for Inhibition of G7-8NA peptide-phage binding to Grb7-SH2 / Inhibition of G7-18 peptide-phage binding to Grb7-SH2: free synthetic peptide at 1, 10, 100 uM
Description: The G7-18 (FIG. 5A) and G7-8NA (FIG. 5B) peptide-phage were concentrated with standard polyethylene glycol precipitation methods and added to each well (1×10^6 phage/well) in the presence of synthetic peptides or without (control). G7-18 peptide-phage competitors were G7-18, G7-18NATE and G7-8 free synthetic peptides (FIG. 5A). G7-8NA peptide-phage competitors were G7-8, G7-8NA and G7-8NATE free synthetic peptides (FIG. 5B). The synthetic peptides were mixed at different concentrations (1, 10, 100 uM) with peptide-phage before adding to Grb7-SH2-GST. Unbound phage were washed away with Tween-TBS buffer and bound phage were detected with anti-M13-horseradish peroxidase (Amersham-Pharmacia Biotech) and ABTS substrate (Calbiochem). Phage was detected by anti-M13-HRP antibody conjugate and detected using ABTS substrate. Plates were read at OD405.

[3] = molecular target: association of Grb7 with the ErbB family of receptors (Homo sapiens, UniProt Q14451); assay: Co-immunoprecipitation of Grb7 with tyrosine phosphorylated ErbB family in heregulin-stimulated SKBR3 cell lysate; details: for Inhibition of association of Grb7 with the ErbB family: heregulin β1 stimulated SKBR3 lysate, anti-Grb7 IP, anti-phosphotyrosine at 185 kDa, densitometry
Chain of association of Grb7 with the ErbB family of receptors (Q14451 whole entry): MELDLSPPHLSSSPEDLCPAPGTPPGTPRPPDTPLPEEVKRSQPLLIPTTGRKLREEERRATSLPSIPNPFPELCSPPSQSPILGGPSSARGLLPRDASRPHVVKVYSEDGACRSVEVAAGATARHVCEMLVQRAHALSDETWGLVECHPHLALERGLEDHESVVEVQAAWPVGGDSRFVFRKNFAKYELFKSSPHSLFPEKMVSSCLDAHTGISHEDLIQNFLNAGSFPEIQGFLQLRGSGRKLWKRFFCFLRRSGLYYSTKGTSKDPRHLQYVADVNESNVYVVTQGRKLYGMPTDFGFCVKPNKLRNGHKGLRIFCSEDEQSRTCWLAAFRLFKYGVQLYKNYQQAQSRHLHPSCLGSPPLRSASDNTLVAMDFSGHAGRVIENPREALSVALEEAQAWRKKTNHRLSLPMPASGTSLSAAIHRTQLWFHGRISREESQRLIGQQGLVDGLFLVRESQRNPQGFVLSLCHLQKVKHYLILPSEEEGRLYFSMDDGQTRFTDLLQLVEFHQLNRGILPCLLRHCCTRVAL
Description: Two of the Grb7-binding peptides were tested for their ability to inhibit Grb7 from binding its known target molecules, such as ErbB2 and ErbB3, in whole cell extracts. Whole cell extracts were made from the cell line SKBR3, which overexpresses Grb7, ErbB2 and ErbB3. […] The immunoprecipitations were carried out with anti-Grb7 followed by western blot. The western blot was divided so the top half was incubated with anti-phosphotyrosine to detect the associated ErbB family that migrates at 185 kDa. The bottom half of western blot was incubated with anti-Grb7 as a loading control.

T1 sequence (Q14451 431-527 limits assumed): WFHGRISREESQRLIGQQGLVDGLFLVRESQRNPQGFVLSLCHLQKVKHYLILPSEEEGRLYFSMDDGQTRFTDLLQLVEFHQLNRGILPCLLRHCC
Chain of Grb7-SH2-GST (Q14451 431-527 limits assumed): as above

## C VFWG YAN DWL C (CVFGYANDWLC; Variant of G7BP-4) [G7BP-4NA]
[1]
  Relative binding affinity for Grb7: lesser affinity
  Effect of mutation of G7BP-4 phage clone on binding to Grb7-SH2-GST: did not effect its ability to bind
[2]
  Inhibition of G7-8NA peptide-phage binding to Grb7-SH2: inhibition

## DpYVPML (D[pY]VPML) [N1480, reference compound]
[2]; phage clone not specified, data not shown
  Inhibition of Grb7 binding peptide-phage binding to Grb7-SH2: No inhibition

## GVSN C VFWG YAN DWL C SDYS (GVSNCVFWGYANDWLCSDYS; Peptide sequence from FuseV Phage Display) [G7BP-4]
[1]
  Relative binding affinity for Grb7: higher affinity
[2]
  Inhibition of G7-8NA peptide-phage binding to Grb7-SH2: inhibition
[2]; listed as G7-8
  Inhibition of G7-18 peptide-phage binding to Grb7-SH2: inhibits; also recorded: inhibition

## GVSNSVFGYANDWLSSDYS (Variant of G7BP-4) [G7BP4-Ser]
[1]
  Effect of mutation of G7BP-4 phage clone on binding to Grb7-SH2-GST: reducing the binding capacity

## GVSNVVFGYANDWLVSDYS (Variant of G7BP-4) [SEQ ID NO:37, G7BP-4 with cysteines mutated to valine]
[1]
  Effect of mutation of G7BP-4 phage clone on binding to Grb7-SH2-GST: reducing the binding capacity

## PQPEYVNQPD (Non-phosphorylated peptide which mimics ErbB2 site) [Y 139]
[3]
  Inhibition of association of Grb7 with the ErbB family: showed no competition

## RSTL C WFEG YDN TFP C KYFR (RSTLCWFEGYDNTFPCKYFR; Peptide sequence from FuseV Phage Display) [G7BP-5]
[2]
  Inhibition of G7-18 peptide-phage binding to Grb7-SH2: inhibition
[3]; 100 uM, data not shown
  Level of inhibition of Grb7 co-immunoprecipitation with the ErbB family: same levels of inhibition

## SVFGYANDWLS (Variant of G7BP-4) [G7BP-No Arms(NA)-Ser]
[1]
  Effect of mutation of G7BP-4 phage clone on binding to Grb7-SH2-GST: reducing the binding capacity

## Y1139 peptide: the Y1139 ErbB2-site peptide when it is phosphorylated (PQPEYVNQPD; not fully specified (residue 5))
[3]
  Inhibition of association of Grb7 with the ErbB family: does compete

## ^VFWG YAN DWL C^ (VFWGYANDWLC; cyclised thioether; Variant G7BP-4NATE)
[2]; listed as G7-8NATE
  Inhibition of G7-8NA peptide-phage binding to Grb7-SH2: inhibition; also recorded: to a lesser extent than seen with the disulfide containing peptides
